The text below walks through data of patent US20260159579A1 (Pfizer, published 2026).

Assay [1] concerns the target Mouse Fc-mouse GDF15 (Mu IgG1Fc_Fxa_Mu GDF15) (mouse). Nature of the assay: SPR BIAcore T200, 37C; Fc-GDF15 captured, monomeric Fc-Fab as analyte; murine GDF15 ligand (Mu IgG1Fc_Fxa_Mu GDF15), first run.
For the next assay, the target named is T1, human BMP6 (human, UniProt P22004 382-513, limits assumed).
T1 construct: Bought
T1 sequence (looked up): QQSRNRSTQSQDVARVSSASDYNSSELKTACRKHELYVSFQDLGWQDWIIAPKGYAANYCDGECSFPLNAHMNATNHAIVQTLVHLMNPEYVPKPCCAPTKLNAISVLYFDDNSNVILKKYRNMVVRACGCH
Briefly: BLI, OctetRED 384; family member amine coupled to AR2G biosensor. The method, then:
(§1) To assess the binding specificity of GDF15_001 to human GDF15, GDF15_001 binding to additional TGFB family members was tested. Analysis was carried out on an Octet Red instrument.
(§2) The TGFB family members were diluted to 10 ug/ml in 10 mM Sodium Acetate pH 4.5 and amine coupled onto AR2G biosensors (catalogue #18-5092, ForteBio) according to the manufacturer's instructions. Monomeric GDF15_001 was diluted to 200 nM in kinetics buffer (catalogue #18-5032 ForteBio). Octet assays were conducted at room temperature with an association time of 300 seconds and a dissociation time of 180 seconds. The data was double referenced (Myszka, D., J. Mol. Recognit 1999; 279-284) and analyzed with Octet Data Analysis software version 8.1 (ForteBio).

In the next assay the target is T2, human Activin B (human, UniProt P09529 293-407).
T2 construct: Bought
T2 sequence (looked up): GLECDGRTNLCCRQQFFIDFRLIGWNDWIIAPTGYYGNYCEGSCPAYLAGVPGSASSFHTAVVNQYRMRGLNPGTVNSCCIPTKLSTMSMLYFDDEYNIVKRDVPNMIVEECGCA
Described as above. The procedure: as §1, §2

Another assay addresses T3, human GDF8 (human, UniProt O14793 267-375, limits assumed).
T3 construct: In-house material
T3 sequence (looked up): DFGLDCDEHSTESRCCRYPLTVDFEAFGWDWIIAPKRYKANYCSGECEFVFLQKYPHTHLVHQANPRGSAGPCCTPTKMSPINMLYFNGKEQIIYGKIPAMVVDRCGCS
The assay is described as above. The method, then: as §1, §2

A further assay deals with T4, human Inhibin A (human, UniProt P05111 233-366; P08476 311-426).
T4 construct: Bought
T4 sequence (looked up) 1: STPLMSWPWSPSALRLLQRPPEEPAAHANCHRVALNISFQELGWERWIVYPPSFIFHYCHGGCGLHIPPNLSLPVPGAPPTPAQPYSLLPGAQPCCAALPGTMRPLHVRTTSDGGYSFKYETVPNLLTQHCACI
T4 sequence (looked up) 2: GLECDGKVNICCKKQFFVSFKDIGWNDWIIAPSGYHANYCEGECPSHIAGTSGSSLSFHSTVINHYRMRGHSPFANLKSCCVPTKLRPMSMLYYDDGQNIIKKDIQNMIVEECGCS
The assay is described as above. The method, then: as §1, §2

The target of another assay is T5, human BMP11 (human, UniProt O95390 299-407).
T5 construct: Bought; also called GDF-11
T5 sequence (looked up): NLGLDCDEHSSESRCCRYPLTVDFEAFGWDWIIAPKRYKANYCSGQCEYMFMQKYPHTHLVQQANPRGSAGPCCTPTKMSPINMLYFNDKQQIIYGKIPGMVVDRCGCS
Described as above. The procedure: as §1, §2

In assay [2] the target is Mouse Fc-mouse GDF15 (Mu IgG1Fc_Fxa_Mu GDF15) (mouse). Nature of the assay: SPR BIAcore T200, 37C; Fc-GDF15 captured, monomeric Fc-Fab as analyte; murine GDF15 ligand (Mu IgG1Fc_Fxa_Mu GDF15), second run. In general terms: In SPR one partner is held on a chip, and binding of the other changes the refractive index at the surface.
In assay [3] the target is T6, Mouse Fc-human GDF15 (Mu IgG1Fc_Fxa_Hu GDF15) (human).
T6 construct: Whole entry is the fusion: mouse IgG1 Fc, FXa site and linker, mature human GDF15; described as dimeric; also called Murine dimeric IgG1 Fc-human GDF-15 with FXa cleavage site; control human GDF15
T6 chain: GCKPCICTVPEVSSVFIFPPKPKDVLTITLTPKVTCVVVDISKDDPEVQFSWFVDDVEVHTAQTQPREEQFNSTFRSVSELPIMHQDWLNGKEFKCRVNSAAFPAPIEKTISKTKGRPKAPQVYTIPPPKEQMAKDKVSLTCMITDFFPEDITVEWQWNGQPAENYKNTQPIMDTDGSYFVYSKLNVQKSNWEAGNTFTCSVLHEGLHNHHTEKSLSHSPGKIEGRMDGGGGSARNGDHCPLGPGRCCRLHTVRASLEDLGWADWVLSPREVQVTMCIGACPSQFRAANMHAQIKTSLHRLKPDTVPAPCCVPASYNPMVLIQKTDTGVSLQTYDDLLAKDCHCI
Nature of the assay: SPR BIAcore T200, 37C; Fc-GDF15 captured, monomeric Fc-Fab as analyte; human GDF15 ligand (Mu IgG1Fc_Fxa_Hu GDF15), first run. An excerpt:
To understand the KD value, without the avidity effect, of GDF15_001 binding to GDF15, monomeric Fc-Fab was produced and tested in the same assay used in Example 2. […] Mu IgG1Fc_Fxa_Hu GDF15, Mu IgG1Fc_Fxa_Mu GDF15 and Mu IgG1Fc_Fxa_Cyno GDF15 were captured onto three different flow cells of a CM4 sensorchip (catalogue number BR100534, GE Healthcare) surface using the Mouse Antibody Capture Kit (BR100838, GE Healthcare) according to the manufacturer's protocol. The running and sample buffer was 10 mM HEPES pH 7.4, 0.15M NaCl, 3 mM EDTA, 0.05% P-20 (HBS-EP+). The final capture levels of Mu IgG1Fc_Fxa_Hu GDF15, Mu IgG1Fc_Fxa_Mu GDF15 and Mu IgG1Fc_Fxa_Cyno GDF15 were 19 resonance units (RU), 22 RU and 19 RU respectively. Flow cell 1 was used as a reference flow cell. […] The dissociation was monitored for 1200 seconds and the surface was regenerated with 10 mM Glycine pH 1.7. Binding affinities and rate constants were determined by fitting the resulting sensorgram data to a 1:1 Langmuir model in BIAcore T200 Evaluation software version 2.0 (GE Healthcare).

Assay [4] deals with Mouse Fc-mouse GDF15 (Mu IgG1Fc_Fxa_Mu GDF15) (mouse). Nature of the assay: SPR BIAcore T200, 37C; Fc-GDF15 captured, monomeric Fc-Fab as analyte; average of runs.

B1: monomeric GDF15_001 (CH23LS-GBT-GDF15_001) (Fab, V domains shown)
VH: QVQLVQSGAEVKKPGSSVKVSCKASGYTFSSYNIDWVRQAPGQGLEWMGGINPIFGTAFYNQKFQGRVTITADESTSTAYMELSSLRSEDTAVYYCAREAITTVGAMDHWGQGTLVTVSS
VL: EIVLTQSPATLSLSPGERATLSCRTSQSVHNYLAWYQQKPGQAPRLLIYDASTRADGIPARFSGSGSGTDFTLTISSLEPEDFAVYYCQQFWSWPWTFGQGTKVEIK
notes: Monovalent 'monomeric Fc-Fab' of GDF15_001 made to measure KD without avidity; also called CH23LS-GDF15_001; monomeric Fc-Fab
Take B1: the Kd (in general, the concentration at which binding is half-saturated) in assay [1] stood at 2.11 nM; in [2], 1.82 nM; in [3] it was 0.0149 nM; in [4], 1.97 nM. The binding result with human BMP6, with human Activin B, with human GDF8, with human Inhibin A and in the assay with human BMP11 was “no binding (tested: 200 nM)” each time. Also, in [4], the koff (as a rule, a measure of how fast the partners let go of each other) turned out to be 0.00326 s⁻¹. Besides, the kon (commonly a measure of how fast the partners come together) in assay [4] came out at 1.66e+06 M⁻¹ s⁻¹.
